Measured values from patent publication US20070082843A1.

Biological target: melanocortin-4 receptor (MC4R) (UniProt P32245)
Assay: competitive binding vs [125I]-NDP-alpha-MSH (receptor not given; MC4R by Example 3)

Chain of UniProt P32245 (P32245 whole entry): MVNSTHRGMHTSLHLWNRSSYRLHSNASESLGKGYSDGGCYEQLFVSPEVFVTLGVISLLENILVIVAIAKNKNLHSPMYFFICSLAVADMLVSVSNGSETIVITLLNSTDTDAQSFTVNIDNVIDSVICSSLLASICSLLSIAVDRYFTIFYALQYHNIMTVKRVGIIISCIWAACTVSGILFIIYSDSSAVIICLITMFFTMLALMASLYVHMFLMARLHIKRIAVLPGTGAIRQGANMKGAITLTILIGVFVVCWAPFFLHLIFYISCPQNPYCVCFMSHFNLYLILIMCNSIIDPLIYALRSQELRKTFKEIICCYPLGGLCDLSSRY

IC50: 5 to 30 nM
Substance: melanotan II (MTII) (peptide)
